Laboratory results taken from patent publication US7556938B1, “Nucleic acids encoding potassium channel interactors” (Millennium Pharmaceuticals, Inc., priority 1998, dated 2009).

B1: KChIP4N3: KChIP4 splice variant KChIP4d (protein)
chain: MNVRRVESISAQLEEASSTGGFLYAQNSTKRSIKERLMKLLPCSAAKTSSPAIQNSVEDELEMATVRHRPEALELLEAQSKFTKKELQILYRGFKNECPSGVVNEETFKEIYSQFFPQGDSTTYAHFLFNAFDTDHNGAVSFEDFIKGLSILLRGTVQEKLNWAFNLYDINKDGYITKEEMLDIMKAIYDMMGKCTYPVLKEDAPRQHVETFFQKMDKNKDGVVTIDEFIESCQKDENIMRSMQLFENVI
B2: KChIP1l: KChIP1long splice variant of KChIP1 (protein)
chain: MGAVMGTFSSLQTKQRRPSKDIAWWYYQYQRDKIEDELEMTMVCHRPEGLEQLEAQTNFTKRELQVLYRGFKNECPSGVVNEDTFKQIYAQFFPHGDASTYAHYLFNAFDTTQTGSVKFEDFVTALSILLRGTVHEKLRWTFNLYDINKDGYINKEEMMDIVKAIYDMMGKYTYPVLKEDTPRQHVDVFFQKMDKNKDGIVTLDEFLESCQEDDNIMRSLQLFQNVM
B3: KChIP2C: KChIP2 splice variant, rat KChIP2C (protein)
chain: MRGQGRKESLSESRDLDGSYDQLTGHPPGPSKKALKQRFLKLLPCCGPQALPSVSENSVEDEFELSTVCHRPEGLEQLQEQTKFTRRELQVLYRGFKNECPSGIVNEENFKQIYSQFFPQGDSSNYATFLFNAFDTNHDGSVSFEDFVAGLSVILRGTIDDRLSWAFNLYDLNKDGCITKEEMLDIMKSIYDMMGKYTYPALREEAPREHVESFFQKMDRNKDGVVTIEEFIESCQQDENIMRSMQLSPLLN
B4: KChIP4N2: N-terminal splice variant of KChIP4 (protein)
chain: MNLEGLEMIAVLIVIVLFVKLLEQFGLIEAGLEDSVEDELEMATVRHRPEALELLEAQSKFTKKELQILYRGFKNECPSGVVNEETFKEIYSQFFPQGDSTTYAHFLFNAFDTDHNGAVSFEDFIKGLSILLRGTVQEKLNWAFNLYDINKDGYITKEEMLDIMKAIYDMMGKCTYPVLKEDAPRQHVETFFQKMDKNKDGVVTIDEFIESCQKDENIMRSMQLFENVI
B5: KChIP4N1: KChIP4 splice variant KChIP4a (protein)
chain: MLTLEWESEGLQTVGIVVIICASLKLLHLLGLIDFSEDSVEDELEMATVRHRPEALELLEAQSKFTKKELQILYRGFKNECPSGVVNEETFKEIYSQFFPQGDSTTYAHFLFNAFDTDHNGAVSFEDFIKGLSILLRGTVQEKLNWAFNLYDINKDGYITKEEMLDIMKAIYDMMGKCTYPVLKEDAPRQHVETFFQKMDKNKDGVVTIDEFIESCQKDENIMRSMQLFENVI
B6: KChIP1N: N-terminal splice variant of KChIP1 (protein)
chain: MWAEGESEGLQTLGIVVVVCSSLKLLHYLGLIDLSDDKIEDELEMTMVCHRPEGLEQLEAQTNFTKRELQVLYRGFKNECPSGVVNEDTFKQIYAQFFPHGDASTYAHYLFNAFDTTQTGSVKFEDFVTALSILLRGTVHEKLRWTFNLYDINKDGYINKEEMMDIVKAIYDMMGKYTYPVLKEDTPRQHVDVFFQKMDKNKDGIVTLDEFLESCQEDDNIMRSLQLFQNVM
B7: KChIP2l: KChIP2 splice variant, rat KChIP2l (protein)
chain: MRGQGRKESLSESRDLDGSYDQLTGHPPGPSKKALKQRFLKLLPCCGPQALPSVSETLAAPASLRPHRPRPLDPDSVEDEFELSTVCHRPEGLEQLQEQTKFTRRELQVLYRGFKNECPSGIVNEENFKQIYSQFFPQGDSSNYATFLFNAFDTNHDGSVSFEDFVAGLSVILRGTIDDRLSWAFNLYDLNKDGCITKEEMLDIMKSIYDMMGKYTYPALREEAPREHVESFFQKMDRNKDGVVTIEEFIESCQQDENIMRSMQLFDNVI
B8: KChIP2s: KChIP2 splice variant, human KChIP2s (protein)
chain: MRGQGRKESLSDSRDLDGSYDQLTDSVDDEFELSTVCHRPEGLEQLQEQTKFTRKELQVLYRGFKNECPSGIVNEENFKQIYSQFFPQGDSSTYATFLFNAFDTNHDGSVSFEDFVAGLSVILRGTVDDRLNWAFNLYDLNKDGCITKEEMLDIMKSIYDMMGKYTYPALREEAPREHVESFFQKMDRNKDGVVTIEEFIESCQKDENIMRSMQLFDNVI

System: rKv4.3
Assay: Two-electrode voltage clamp of Kv4.3 currents in Xenopus oocytes co-injected with KChIP cRNA
Format: cell-based, rat
Conditions: for effect on Kv4.3 current: co-injected with Kv4.3 cRNA; for fold increase of inactivation time constant of Kv4.3: versus Kv4.3 alone
Experimental: Frogs underwent no more than two surgeries and surgeries were performed by well established techniques. Frogs were anesthetized with ice. Total cRNA (1-10 ng) was injected into stage IV Xenopus oocytes that were harvested the previous day. The Xenopus oocytes were incubated in ND96 containing (in mM) 96 NaCl, 2 KCl, 1.8 CaCl2, 1 MgCl2, 5 HEPES, pH 7.6, plus (Gentamycin 50 μg/ml) at 18° C. Xenopus oocytes were studied 3-7 days after injection. The two-electrode voltage-clamp recordings were performed in ND96 solution using a TURBO TEC 03 Clamp Amplifier (ALA Scientific Instruments, Westbury, N.Y.). Both electrodes were filled with 3 M KCl and had electrode resistances ranging from 0.2-1 MOhm. The current signals were filtered at 1000 Hz before transferred on a PC (Gateway, Calif.) using the PULSE software (HEKA, Germany).
To investigate whether the modulatory effects of these KChIPs are specific for Kv4 channels, KChIP1 was coexpressed with Kv1.4 and Kv2.1 in Xenopus oocytes. Xenopus oocytes were injected with 1-3 ng/oocyte of cRNA which was prepared using standard in vitro transcription techniques (Sambrook et al. 1989. Molecular Cloning: a laboratory manual, Cold Spring Harbor Press). Currents in Xenopus oocytes were measured with a two-electrode voltage clamp. […] As a final control for the KChIP effects and to verify that the KChIPs' effects on Kv4 currents are independent of expression system, the above kinetic analyses were repeated after expressing Kv4.3 and KChIP mRNAs in Xenopus oocytes. The effects KChIP1 on for Kv4.3 in the Xenopus oocyte system were strikingly similar to those on Kv4.2 in CHO cells (Table 1).

[1] = Kv4.3 co-expressed with the KChIP

Chain of rKv4.3 (Q62897 1-487 limits assumed): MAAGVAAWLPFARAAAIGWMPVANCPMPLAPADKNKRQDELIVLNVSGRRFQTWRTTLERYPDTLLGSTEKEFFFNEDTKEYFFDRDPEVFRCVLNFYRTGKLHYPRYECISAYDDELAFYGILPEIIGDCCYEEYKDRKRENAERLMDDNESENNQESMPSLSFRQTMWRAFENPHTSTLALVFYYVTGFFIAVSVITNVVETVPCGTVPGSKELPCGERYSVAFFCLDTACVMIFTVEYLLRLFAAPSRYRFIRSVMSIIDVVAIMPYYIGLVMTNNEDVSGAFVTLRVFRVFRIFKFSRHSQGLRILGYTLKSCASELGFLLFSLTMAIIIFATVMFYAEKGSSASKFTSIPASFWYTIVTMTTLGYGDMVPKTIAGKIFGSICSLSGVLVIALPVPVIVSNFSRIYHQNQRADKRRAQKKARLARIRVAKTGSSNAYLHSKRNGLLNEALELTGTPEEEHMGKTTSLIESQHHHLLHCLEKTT

Molecule | Inactivation time constant (ms ± SEM) [1] | Peak amplitude (μA ± SEM) [1] | effect on Kv4.3 current | other results
B1 | 85 ± 4 ms | 43 ± 4 μA | increased the peak amplitude of Kv4.3 | 
B2 | 100 ± 8 ms | 55±7 μA |  | fold increase of inactivation time constant of Kv4.3: ~2 fold
B3 | 74 ± 4 ms | 44 ± 5 μA |  | 
B4 |  |  |  | Peak amplitude (μA ± SEM) (KChIP4N2 cRNA 1× (stock)): 0 ± 0 μA; Peak amplitude (μA ± SEM) (KChIP4N2 cRNA diluted 5×): 4 ± 1 μA; Inactivation time constant (ms ± SEM) (KChIP4N2 cRNA diluted 30×): 681 ± 28 ms; Peak amplitude (μA ± SEM) (KChIP4N2 cRNA diluted 30×): 25 ± 2 μA; Inactivation time constant (ms ± SEM) (KChIP4N2 cRNA diluted 120×): 193 ± 13 ms; Peak amplitude (μA ± SEM) (KChIP4N2 cRNA diluted 120×): 16 ± 3 μA; Inactivation time constant (ms ± SEM) (KChIP4N2 cRNA diluted 500×): 84 ± 5 ms; Peak amplitude (μA ± SEM) (KChIP4N2 cRNA diluted 500×): 9 ± 4 μA; effect on inactivation kinetics of Kv4.3 (high concentrations of KChIP4N2 (e.g. 5× dilution of stock)): converted the fast-inactivating Kv4.3 current into an almost non-inactivating current
B5 | 112 ± 7 ms | 6 ± 1 μA | statistically had no significant (ns) effect on Kv4.3 amplitude | 
B6 | 1778 ± 136 ms | 18±3 μA | did not affect peak amplitude of Kv4.3 | fold increase of inactivation time constant of Kv4.3: 32 fold
B7 | 87 ± 4 ms | 51 ± 4 μA |  | 
B8 | 90 ± 3 ms | 44 ± 3 μA |  | 
